Positions count from the first letter of the chain named.
T1: extracellular domain of human BCMA (human, UniProt Q02223 1-54)
T1 construct: amine-linked to Octet AR2G tips; also called hsBCMA; BCMA (human)
T1 sequence: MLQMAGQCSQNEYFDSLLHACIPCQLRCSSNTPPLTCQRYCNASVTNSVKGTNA

B1: AB200-R1a-Fab_VH1 (Fab, V domains shown)
VH: QVQLVQSGAEVKKPGSSVKVSCKASGGTFSNYWMHWVRQAPGQGLEWMGATYRGHSETYYNEKFKGRVTITADKSTSTAYMELSSLRSEDTAVYYCARGAIYHGYDVLDDWGQGTLVTVSS
VL: DIQMTQSPSSLSASVGDRVTITCSATQDISNYLNWYQQKPGKAPKLLIYFTSNLQSGVPSRFSGSGSGTDFTLTISSLQPEDFATYYCQQYRKLPWTFGQGTKLEIKR
B2: AB200-R1a-Fab_VH2 (Fab, V domains shown)
VH: B1 VH with E57D, E62Q, K65Q, I101V, Y102F, D110N
VL: B1 VL
B3: AB200-R1a-Fab_VH41 (Fab, V domains shown)
VH: B1 VH with E57D, V107I, D109N, D110N
VL: B1 VL
B4: AB200-R1a-Fab_VH51 (Fab, V domains shown)
VH: B1 VH with E57D, Y59N, E62Q, A100T, Y105F, D110N
VL: B1 VL
B5: AB200-R1a-Fab_VH3 (Fab, V domains shown)
VH: B1 VH with H35S, E57Q, E62Q, I101V, D110N
VL: B1 VL
B6: AB200-R1a-Fab_VH4 (Fab, V domains shown)
VH: B1 VH with S25T, E57N, N61D, E62Q, D110N
VL: B1 VL
B7: AB200-R1H32-R2Vk26 (Fab, V domains shown)
VH: B1 VH with G54S, E57D, E62Q, G66S, L108I, D110N
VL: B1 VL with S24R, T26S, D28S, N31S, F50A, L54I, Y91F, K93R
B8: AB200-R1H32-R2Vk34 (Fab, V domains shown)
VH: B1 VH with G54S, E57D, E62Q, G66S, L108I, D110N
VL: B1 VL with S24R, T26S, D28S, N31S, L33I, F50A, K93R, T97S
B9: AB200-R1H32-R2Vk30 (Fab, V domains shown)
VH: B1 VH with G54S, E57D, E62Q, G66S, L108I, D110N
VL: B1 VL with S24R, T26S, D28S, N31S, F50A, S56I, K93R, L94I
B10: AB200-R1H32-R2Vk44 (Fab, V domains shown)
VH: B1 VH with G54S, E57D, E62Q, G66S, L108I, D110N
VL: B1 VL with S24R, T26S, D28S, N31S, L33I, F50A, S56I, K93R, T97S
B11: AB200-R1H32-R2Vk40 (Fab, V domains shown)
VH: B1 VH with G54S, E57D, E62Q, G66S, L108I, D110N
VL: B1 VL with S24R, T26S, D28S, N31S, L33I, F50A, L54I, K93R, L94I
B12: AB200-R1H32-R2Vk32 (Fab, V domains shown)
VH: B1 VH with G54S, E57D, E62Q, G66S, L108I, D110N
VL: B1 VL with S24R, T26S, D28S, N31S, F50A, S56I, L94I, T97S
B13: AB200-R1H32-R2Vk37 (Fab, V domains shown)
VH: B1 VH with G54S, E57D, E62Q, G66S, L108I, D110N
VL: B1 VL with S24R, T26S, D28S, N31S, L33I, F50A, L94I, T97S
B14: AB200-R1H32-R2Vk33 (Fab, V domains shown)
VH: B1 VH with G54S, E57D, E62Q, G66S, L108I, D110N
VL: B1 VL with S24R, T26S, D28S, N31S, F50A, S56I, Y91F, L94I
B15: AB200-R1H32-R2Vk29 (Fab, V domains shown)
VH: B1 VH with G54S, E57D, E62Q, G66S, L108I, D110N
VL: B1 VL with S24R, T26S, D28S, N31S, F50A, S56I, K93R, T97S
B16: AB200-R1H32-R2Vk38 (Fab, V domains shown)
VH: B1 VH with G54S, E57D, E62Q, G66S, L108I, D110N
VL: B1 VL with S24R, T26S, D28S, N31S, L33I, F50A, Y91F, L94I
B17: AB200-R1H32-R2Vk43 (Fab, V domains shown)
VH: B1 VH with G54S, E57D, E62Q, G66S, L108I, D110N
VL: B1 VL with S24R, T26S, D28S, N31S, L33I, F50A, L54I, Y91F, L94I

Target: T1, extracellular domain of human BCMA
Test: Octet BLI; Fab 200 nM

Point of comparison: B4, Kd 18.9 nM. Against it:
- B1 — within 1.5-fold, 21 nM
- B2 — 6.6-fold lower, 2.85 nM
- B3 — within 1.5-fold, 14.5 nM
- B5 — 2.8-fold higher, 53.1 nM
- B6 — 3.5-fold lower, 5.45 nM

Target: T2, extracellular domain of rhesus monkey BCMA (rhesus monkey, UniProt F7FFA0 1-53)
T2 construct: extracellular domain; also called RhBCMA
T2 sequence (F7FFA0 entry or part of it): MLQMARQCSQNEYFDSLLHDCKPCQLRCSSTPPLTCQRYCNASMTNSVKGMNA
Test: Octet BLI; Fab 200 nM

Point of comparison: B6, Kd 13.7 nM. Against it:
- B1 — 2.4-fold higher, 32.2 nM
- B2 — within 1.5-fold, 11.1 nM

Target: T1, extracellular domain of human BCMA
Test: Octet BLI; Fab 200 nM
Remark: another data set of the same source

Point of comparison: B17, Kd 1.29 nM. Against it:
- B7 — within 1.5-fold, 1.06 nM
- B8 — within 1.5-fold, 1.12 nM
- B9 — 1.6-fold lower, 0.816 nM
- B10 — 1.8-fold lower, 0.71 nM
- B11 — within 1.5-fold, 1.03 nM
- B12 — within 1.5-fold, 0.873 nM
- B13 — 1.5-fold lower, 0.85 nM
- B14 — within 1.5-fold, 0.996 nM
- B15 — within 1.5-fold, 1.14 nM
- B16 — within 1.5-fold, 1.15 nM

Target: T2, extracellular domain of rhesus monkey …
Test: Octet BLI; Fab 200 nM
Remark: another data set of the same source

Point of comparison: B17, Kd 9.2 nM. Against it:
- B7 — 2.4-fold lower, 3.85 nM
- B8 — 2-fold lower, 4.53 nM
- B9 — 2.3-fold lower, 3.92 nM
- B10 — 2.8-fold lower, 3.32 nM
- B11 — 1.8-fold lower, 5.08 nM
- B12 — 1.9-fold lower, 4.83 nM
- B13 — 2.1-fold lower, 4.41 nM
- B14 — 2.1-fold lower, 4.29 nM
- B15 — 2.5-fold lower, 3.69 nM
- B16 — 1.7-fold lower, 5.35 nM

From patent publication US20240327535A1 (EISAI R AND D MANAGEMENT, published 2024)
